Experimental data published in patent publication US20220218850A1, “Methods and Compositions for Two-Stage Microbubble Delivery of Active Agents” (Virginia Commonwealth University, priority 2021, published 2022).

Tested on: DU-145 tumor xenografts
Assay: UTMD delivery of Alexa Fluor-His-MDA-7/MB complex to DU-145 xenografts
Format: in vivo, mice
Details: tail vein, ultrasound at left flank tumor (UTMD)
Procedure: DU-145 human prostate cancer cells were established as xenografts in the left flank of nude mice. Alexa Fluor labeled His-MDA-7/MBs complex were injected through the tail vein of nude mice, and sonoporated in the xenograft (DU-145) tumor implanted in the left flank with a portable ultrasound (SonoSite Micro-Maxx US platform) equipped with an L25 linear array transducer set at 0.7 Mechanical Index, 1.8 MPa for 10 min (UTMD approach). The fluorescent image was captured using Xenogen IVIS spectrum. […] Lighter color indicates higher fluorescent intensity.
In addition to delivering therapeutic viruses systemically, we also tested the possibility of using MBs and a UTMD approach to deliver therapeutic proteins in vivo. His tagged MDA-7/IL-24 (His-MDA-7) was purified by using Ni-NTA column chromatography. 1 mg/ml of His-MDA-7 solution was mixed with Alexa Fluor 488 containing 0.1 M Sodium bicarbonate, followed by removal of unincorporated dye by centrifugation using centricon (3 kD cut off MW). Confirmation of labeling of His-MDA-7 (Alexa Fluor-His-MDA-7) was obtained spectroflurometrically based on emission spectra changes. The Alexa Fluor-His-MDA-7 was incubated overnight with MBs and localization of the labeled protein complex in the MBs was monitored by green fluorescence and found to be associated with the lipid shell of the MB (FIG. 3A). […]

B1: Alexa Fluor-His-MDA-7: His tagged MDA-7/IL-24 protein labeled with Alexa Fluor 488, complexed with microbubbles (protein, UniProt Q13007 52-206, looked up)
Interleukin-24: QEFHFGPCQVKGVVPQKLWEAFWAVKDTMQAQDNITSARLLQQEVLQNVSDAESCYLVHTLLEFYLKTVFKNYHNRTVEVRTLKSFSTLANNFVLIVSQLQPSQENEMFSIRDSAHRRFLLFRRAFKQLDVEAALTKALGEVDILLTWMQKFYKL
modifications: His tag, Alexa Fluor 488, microbubble complex
notes: His tagged MDA-7/IL-24 protein labeled with Alexa Fluor 488, complexed with microbubbles
localisation of labeled protein (fluorescent image): mostly localized in the left flank where ultrasound was applied | localisation of labeled protein (fluorescent image) (listed as Alexa Fluor-MDA-7): located predominantly in the tumor in the left flank of mice
